Laboratory results as given in patent US11912763 (dated 2024).
Residue numbers refer to the chain shown, from its start. Where “and” joins values, the source holds several entries; their conditions need not be identical. Equal entries are not always repeated. Where two headings read alike, the source gives them in different places. Each block holds one binder with its values, some of them ahead of it.

Legend:
human CLDN18.2 [1] = target: T1, human CLDN18.2 (human, UniProt P56856); experiment: ELISA
human CLDN18.2 [2] = target: T1, human CLDN18.2; experiment: ELISA; remark: listed apart in the source
human CLDN18.2 [3] = target: T1, human CLDN18.2; experiment: ELISA; remark: listed apart in the source
human CLDN18.2 [4] = target: T1, human CLDN18.2; experiment: ELISA; remark: listed apart in the source
human CLDN18.2 [5] = target: T1, human CLDN18.2; experiment: KinExA
human CLDN18.2 [6] = target: T1, human CLDN18.2; experiment: ELISA; remark: listed apart in the source
human CLDN18.2 [7] = target: T1, human CLDN18.2; experiment: ELISA; remark: listed apart in the source
human CLDN18.2 [8] = target: T1, human CLDN18.2; experiment: ELISA; remark: listed apart in the source
human CLDN18.2 [9] = target: T1, human CLDN18.2; experiment: ELISA; remark: listed apart in the source
mouse CLDN18.2 [10] = target: T2, mouse CLDN18.2 (mouse, UniProt P56857); experiment: ELISA
T2 chain: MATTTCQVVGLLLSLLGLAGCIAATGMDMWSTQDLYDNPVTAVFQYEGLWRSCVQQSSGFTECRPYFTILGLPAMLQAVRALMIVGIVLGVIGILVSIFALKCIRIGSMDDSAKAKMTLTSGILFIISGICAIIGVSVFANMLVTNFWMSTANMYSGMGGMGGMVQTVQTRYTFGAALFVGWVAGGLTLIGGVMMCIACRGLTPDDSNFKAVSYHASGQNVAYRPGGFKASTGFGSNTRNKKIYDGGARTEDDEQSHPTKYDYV

human CLDN18.1 [11] = target: T3, human CLDN18.1 (human, UniProt P56856); experiment: ELISA
T3 chain: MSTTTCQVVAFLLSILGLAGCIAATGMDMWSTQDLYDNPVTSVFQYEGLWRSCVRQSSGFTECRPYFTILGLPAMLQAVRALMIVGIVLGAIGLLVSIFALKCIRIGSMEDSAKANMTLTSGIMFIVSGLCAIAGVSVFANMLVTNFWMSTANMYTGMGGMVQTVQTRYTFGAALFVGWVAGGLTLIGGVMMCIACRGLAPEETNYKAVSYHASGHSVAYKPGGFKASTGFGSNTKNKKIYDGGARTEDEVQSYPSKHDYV

human CLDN18.2 [12] = target: T1, human CLDN18.2; experiment: ELISA; remark: listed apart in the source
human CLDN18.2 [13] = target: T1, human CLDN18.2; experiment: ELISA; remark: listed apart in the source
human CLDN18.2 [14] = target: T1, human CLDN18.2; experiment: ELISA; remark: listed apart in the source
mouse CLDN18.2 [15] = target: T2, mouse CLDN18.2; experiment: ELISA
human CLDN18.1 [16] = target: T3, human CLDN18.1; experiment: ELISA
human CLDN18.2 [17] = target: T1, human CLDN18.2; experiment: ELISA, serum 24 h
human CLDN18.2 [18] = target: T1, human CLDN18.2; experiment: ELISA, serum 72 h
human CLDN18.2 [19] = target: T1, human CLDN18.2; experiment: ELISA, serum 0 h
human CLDN18.2 [20] = target: T1, human CLDN18.2; experiment: ELISA, after 14 days at 37C

- EC50 (human CLDN18.2 [1]): 0.36 nM and 0.69 nM
- EC50 (human CLDN18.2 [2]): 0.157 nM
- EC50 (human CLDN18.2 [3]): 0.38 nM
- EC50 (human CLDN18.2 [4]): 0.208 nM
- Kd (human CLDN18.2 [5]): 0.0133 nM
- EC50 (human CLDN18.2 [6]): 0.69 nM
- EC50 (human CLDN18.2 [7]): 0.42 nM
- EC50 (human CLDN18.2 [8]): 0.2 nM
- EC50 (human CLDN18.2 [9]): 0.164 nM
- EC50 (mouse CLDN18.2 [10]): 0.371 nM
- binding result (human CLDN18.1 [11]): no binding
- EC50 (human CLDN18.2 [12]): 0.51 nM
- EC50 (human CLDN18.2 [13]): 0.117 nM
- EC50 (human CLDN18.2 [14]): 0.151 nM
B1: Ab10 (antibody)
chain 1: QVQLVQSGAEVKKPGSSVKVSCKASGYAFSNYLIEWVKQAPGQGLEWIGLINPGSGGTNYNEKFKGKATITADKSTSTAYMELSSLRSEDTAVYYCARVYYGNSFAYWGQGTLVTVSS
chain 2: DIVMTQSPDSLAVSLGERATISCKSSQSLLNSGNQKNYLTWYQQKPGQPPKLLIYWASTRESGVPDRFSGSGSGTDFTLTISSLQAEDVAVYYCQNDYFYPFTFGQGTKLEIK

- EC50 (human CLDN18.2 [4]): 62.1 nM
- binding result (mouse CLDN18.2 [15]): no binding
B2: Ab35 (antibody, V domains shown)
VH: B1 chain 1 with S104T
VL: B1 chain 2 with S32T

- EC50 (human CLDN18.2 [8]): 0.219 nM
- binding result (human CLDN18.1 [16]): no binding
B3: Ab15 (antibody, V domains shown)
VH: B1 chain 1
VL: DIVMTQSPDSLAVSLGERATINCKSSQSLLNSGNNKNYLAWYQQKPGQPPKLLIYWASTRESGVPDRFSGSGSGTDFTLTISSLQAEDVAVYYCQNDYFYPFTFGQGTKLEIKR

- EC50 (human CLDN18.2 [3]): 0.74 nM
- EC50 (human CLDN18.2 [17]): 0.535 nM
- EC50 (human CLDN18.2 [18]): 1.2 nM
- EC50 (human CLDN18.2 [19]): 0.357 nM
B4: LB432 CLDN18.2 arm (antibody)
chain 1: B1 chain 1
chain 2: B1 chain 2

- binding result (human CLDN18.1 [11]): no binding
- EC50 (human CLDN18.2 [13]): 0.227 nM
B5: Ab8 (antibody, V domains shown)
VH: B1 chain 1 with I70L, Y95F
VL: B3 VL with N22S, N35Q, A40T

- EC50 (human CLDN18.2 [2]): 0.99 nM
- EC50 (human CLDN18.2 [20]): 10.1 nM
- EC50 (human CLDN18.2 [14]): 0.366 nM
B6: LB321 CLDN18.2 arm (antibody)
chain 1: B1 chain 1
chain 2: B1 chain 2

- EC50 (human CLDN18.2 [9]): 0.344 nM
B7: ADC1 (antibody)
chain 1: B1 chain 1
chain 2: B1 chain 2
modifications: Ab10 SMCC-DM1 conjugate

- EC50 (human CLDN18.2 [1]): 0.5 nM
B8: LB195 CLDN18.2 arm (antibody)
chain 1: B1 chain 1
chain 2: B1 chain 2

- EC50 (human CLDN18.2 [4]): 0.22 nM
- EC50 (human CLDN18.2 [8]): 0.222 nM
- binding result (human CLDN18.1 [16]): no binding
- EC50 (mouse CLDN18.2 [10]): 0.594 nM
B9: Ab6 (antibody, V domains shown)
VH: B1 chain 1
VL: B1 chain 2 with Q35N, T40A

- EC50 (human CLDN18.2 [4]): 0.211 nM
- EC50 (mouse CLDN18.2 [10]): 0.518 nM
B10: Ab36 (antibody, V domains shown)
VH: B1 chain 1 with S104T
VL: B1 chain 2 with S32T, Q35N, T40A

- EC50 (human CLDN18.2 [1]): 0.59 nM
B11: LB155 CLDN18.2 arm (antibody)
chain 1: B1 chain 1
chain 2: B1 chain 2

- EC50 (human CLDN18.2 [9]): 0.31 nM
B12: ADC2 (antibody)
chain 1: B1 chain 1
chain 2: B1 chain 2
modifications: Ab10 MC-VC-PAB-MMAF conjugate

- binding result (human CLDN18.1 [11]): no binding
- EC50 (human CLDN18.2 [13]): 0.339 nM
B13: Ab9 (antibody, V domains shown)
VH: B1 chain 1 with I70L, Y95F
VL: B3 VL with N22S, N35Q, A40T, D76H

- binding result (human CLDN18.1 [11]): no binding
- EC50 (human CLDN18.2 [13]): 0.282 nM
B14: Ab7 (antibody, V domains shown)
VH: B1 chain 1
VL: B3 VL with N22S, N35Q, A40T, D76H
